Results published in US20260117244A1, “INHIBITORY RNA FOR THE CONTROL OF PHYTOPATHOGENS” (priority 2021, published 2026).

B1: 64 (nucleic acid, listed as Golovinomyces orontii)
chain: ATGGAGGCATGTGTGATCGACGTGGTGGCTACTAGGGTAGACGATTGCGAAACTCCAGCGTCGAAAGATACCTCCAACGCTTGGTGTCATCCAGGAGCTGCCGCTTTCGATTTTCGCAGTGATGTCTTTACTTCACCGACTTGCTCAATGCTCGAAGCAATCAAAAACACAACCTTACTCGATGATGTCTATCAGGCTGATCCTACCACAAATGATCTGGAATCACACTTGGCAGCGCGCACATCTCATGCCGCAGCACTGTTTGTCTTGTCTGGCACTATGGGGAATCAAATAGCTCTACGTTCTCACTTGCAACAACCACCGTATGCAATTCTTTGCGATCATCGAAGTCATATTTTTCAATGGGAAGCGGGCGGCGTTGCAAGTCTCTGCGGTGCACTTGTCAAAACTGTTGTACCAGCAAACGGTGAGTATCTTACTCGGGAAGATATTGAGAGTAATGTTGTGCTTGGTGATGATATTCATAGTACGCCTACTCGGGTTATATCTCTTGAAAATACACTGGGTGGCATTGTAATACCGCTAGAGGAGACGCGACGTATAACGAATTTTGCTCGAGAAAACAATATCAAGGTTCACCTTGATGGTGCACGATTGTGGGAGGCAGTCGCTGCAGGTGCAGGTTCACTTACCGATTATTGTGCTCTGTTTGATAGTGTAAGTCTATGTTTCTCCAAGGGACTCGGAGCACCAGTCGGCAGTATTTTAGTTGGTGGAGAGGCTTTTATCAAACATGCTAGATGGATAAGAAAGTCGATTGGTGGCGGCCTTCGTCAGCCTGGTCTGTTAACAGCAACAGCCAGGGTTGCTCTGGATGAAACGTTTGGAAGTGGCCCTTGGGGTGAAGGCGGAAAGCTAAAAGGCACTCACTTTGTAGCGAAAAGGATAACTGCACTCTGGACGTCGCTAGGTGGGAAACTACTGAGGAGGACCGAGACAAATATGGTTTGGTTAGATCTTGAGGGTTCTAAGATTAGTGTAGAGACGTTTGTGAAAATTGGAGCAGAGCATGGGGTAGCACTCGAAGGTCCAAGGCTAGTGGTGCATTATCAAATTGAAGACGCTGCAGTAGAGAAGTTAAAAGCAGTTTTTGAACAGGTCCTGCTTAAAACCTAG
modifications: listed as DNA
B2: 79 (nucleic acid, listed as Golovinomyces orontii)
chain: ATGTCAGCATCTAGCCTTTCTCAGTCTACAGCTGAGAAAAGACACGAAGAATATCAGTATTTAGATCTGATCTCCGAAATAGTAGAGACAGGGGAGCATCGACCAGATCGAACTGGAACTGGAACCTTTTCTTTGTTCGCGCCAAAACCTTTAAAATTCCAGCTTTCTGAATCTGGAAAGCCGATTCTGCCCCTAATTACAACCAGGCGCATCTTCTTACGTGCTGTAATCACCGAACTTCTCTGGTTCATATCCGGCTCGACCTCCTCCATTCCTCTGGTAGAAGCAGGAATAAAGATTTGGGATGGAAATGGAACCCGTGAATATCTTGATTCGGTTGGTTTATCTCATCGTGATGTTGGAGATCTTGGTCCAATATATGGATTCCAATGGCGTCATTTTGGTGCCGACTACGTTGATGCTAACACTGACTATACTGGGAAAGGGGTTGATCAACTCGCTGAAGTTGTTGCAAAACTCAAGACAAATCCATATGACCGCCGCATTATTCTTACAGCCTGGAACCCGCGGGATCTAAAGTCAATGGCTTTACCGCCTTGTCATCTTCTTGCACAATTTTACGTCTCATTCCCACAAGGTAGTAAATCTGTTGGGACTCTTCACTGTCTTTTATATCAGCGTAGCTGCGACATGGGCCTTGGAGTACCATTTAATATTGCAAGCTATGCCTTACTCACTCATATGTTGGCTCATACATGCGAACTACTGCCTGGGACTTTGACGCACACCATGGGTGATGCACATGTCTATGCCGATCATGTTGAGGCTTTAAAAACACAACTGACACGTGAGCCGCGTCCATTCCCTGAAATTGAGATTAGGAAAGAAAAAGGAGGAAGTATAGACGGCTGGCTTGTCGATGATTTTCTCATCAAAGGCTACGAACCGCACAAGTCTATCTCGATGAAGATGTCGGTGTAA
modifications: listed as DNA
B3: 2 (nucleic acid, listed as Golovinomyces orontii)
chain: ATGTCTAGGCATACATCTGCATTTTTCGTTCTCTTTCCTACATTATTCGTCATATTAGCCAGTGCCTATCAATCACACTATGGCTCATCCTATCATCAGCAAGAGTCTCTTCAATCTGACGCACAATGGAATAGCAATATCTCTGATACTTTATTCCTGGAGCTAGAGGAACTAGCTCGTATCGTTGATATTGCTTACTGTGTTGGTACAACAGGAATCTCTAGCCCTTTTGTATGCGCCTCGCATTGCAGCGATTTTCCAAGCTTTGAACTCGTGGATACATTCCATTCAGGATACTTATTGGGCAATAGTTGCGGTTACATTGCACTTGATCATGCGTCGGACAATAACAGAGGACGAATACTGGTAGTTTTCAGGGGTACATACAGTATCGACGACACTATAATAGACCTGACTATGGTACCACAAAAGTACGCGCCATACCCGTCTCATCACGAAAATAATTTCAAAAGATCAGAATCAAGCCCACTTTTTAATTTAATACCTAGTAAAGAAATTCGGTCCCTCTTACGCTCATTCTCACGTATATTTCATCGTCGAAAAGGAAGTAGGCCAGAAAGACATATGCACTCTAACATTGAATGTACGAACTGCACTGTTCATATGGGATTTTGGACAAGCTACCAACAAATACGTCCTCATTTATTCTCCAAGATTAGTAGCCTTCGAAAAAAATTCCCTAACTATCGATTGGATTTAGTCGGACACTCACTAGGTGGCGCTGTTGCTGCTCTTGCTGGACTTGATCTTAAATTACTTGGATACGAACCTATCGTAACAACCTTTGGTGAGCCACGCGTTGGAAATACTGGATTCAGAGATTTCATGGATGCCACATTTAACCTACGCTCCCAGAACTCAGGGGGTCATTTAGACATGCCAAGCTGCAAAGATCACTATCGTAGAGTGACTCATACAAGTGATCCTATGCCATTACTACCGCCGCAAGATTTTGGCTATCGCCCACATGCTGGCGAGGTATTCATCTCAAAACGAGATCTTCCAGTGGCAATACAAGACGTTCGTCACTGTTTTGGTGACGATGATGTGAACTGTATCGAGGAAAGAGGAAACAATAGAGTTTGGACTGATTTATCTGAGACGTCGAAAATAAGAGCCGGCACCAAAGACTCCTTAGATGCCAGGGGTGGCGAATTGAAAAAACGAGATAGGGTACGATTACATCCTCCCCATCTTTGGCGACCCTTTCTAGCGCATCGTGACTATTTTTGGCGCCTAGGATTATGCGTTCCAGGAGATGATCCAACTGGTCAAGTAAGAGACGAGGTTTAG
modifications: listed as DNA

System: G. orontii MGH1
Experiment: Spray-induced gene silencing (SIGS), G. orontii spore production on A. thaliana (whole plant and detached leaf assays)
Format: in vivo, Golovinomyces orontii
Details: topical dsRNA against G. orontii target (Gor Seq ID); detached leaf assay; n>=3

Row | Molecule | G. orontii Spore Production on Arabidopsis, Detached Leaf Assay, % reduction [%]
1 | B1 | 55
2 | B2 | 68
3 | B3 | 67

Same assay, conditions: topical dsRNA against G. orontii target (Gor Seq ID); whole plant assay; n>=3

Row | Molecule | G. orontii Spore Production on Arabidopsis, Whole Plant Assay, % reduction [%]
4 | B3 | 41
